Laboratory results reported in article PMC12585912.

Columns and labels:
[1] = target: His101 (UniProt position 101, RLRALHMKEHP); experiment: NMR; conditions: 293 K per the general NMR methods; not restated for the pH titration; 150 mM ionic strength; not given for the titration ("All buffers were controlled to 150 mM ionic strength"); the standard NMR buffer is 20 mM Tris, 135 mM KCl, 15 mM NaCl, pH 7.3; bound to specific FGF4 dsDNA (13-mer containing the TTGT motif)
[2] = target: His67 (UniProt position 67, ENPKMHNSEIS); experiment: NMR; conditions: 293 K per the general NMR methods, not restated for the pH titration, 150 mM ionic strength, not given for the titration ("All buffers were controlled to 150 mM ionic strength"), the standard NMR buffer is 20 mM Tris, 135 mM KCl, 15 mM NaCl, pH 7.3

Transcription factor SOX-2, extended DNA-binding (HMG) domain, Sox2 31-127 (Homo sapiens), sequence (chain, as listed by the source): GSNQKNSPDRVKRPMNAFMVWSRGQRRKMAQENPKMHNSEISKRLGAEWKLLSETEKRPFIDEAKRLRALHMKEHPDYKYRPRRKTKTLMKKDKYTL

Transcription factor SOX-2, extended DNA-binding (HMG) domain, Sox2 31-127 (Homo sapiens)
pKa [1]: 4.1 | pKa ([2]; bound to specific FGF4 dsDNA (13-mer containing the TTGT motif)): 6.25 | pKa ([2]; free Sox2 31-127, folded): 5.76
